Data from publication PMC6486544 (Nucleic Acids Research, 2019).

Experiments:
GB1-U1A (1-282) = GB1-U1A (1-282) (UniProt P09012 1-282); test: NMR titration
U1A RRM1 (1-126) = U1A RRM1 (1-126) (UniProt P09012 1-126); test: NMR titration
U1A RRM1 (1-126), sequence (P09012 1-126): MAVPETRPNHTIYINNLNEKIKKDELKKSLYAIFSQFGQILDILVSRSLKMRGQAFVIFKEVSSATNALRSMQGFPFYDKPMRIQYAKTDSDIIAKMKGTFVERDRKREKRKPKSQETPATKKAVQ

GB1-U1A (1-282), sequence (P09012 whole entry): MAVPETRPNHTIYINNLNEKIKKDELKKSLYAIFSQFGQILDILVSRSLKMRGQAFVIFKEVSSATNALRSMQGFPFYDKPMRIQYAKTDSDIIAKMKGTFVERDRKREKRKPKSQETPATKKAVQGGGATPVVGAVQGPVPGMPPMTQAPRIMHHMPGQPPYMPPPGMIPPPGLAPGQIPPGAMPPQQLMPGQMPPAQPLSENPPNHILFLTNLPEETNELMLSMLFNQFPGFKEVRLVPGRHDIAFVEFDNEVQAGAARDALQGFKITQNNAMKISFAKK

binding result (GB1-U1A (1-282)): binds
binding result (U1A RRM1 (1-126)): binds
B1: GB1-hSAM68 (C2) (domain or fragment, human, UniProt Q07666 365-443, looked up)
chain: TYEEYGYDDTYAEQSYEGYEGYYSQSQGDSEYYDYGHGEVQDSYEAYGQDDWNGTRPSLKAPPARPVKGAYREHPYGRY
